The results in this text go back to publication PMC8897273 (Journal of molecular biology, 2022).

Where two headings read alike, the source gives them in different places.

The target of series [1] is T1, PABP1 (Homo sapiens, UniProt P11940 1-636). The experiment in a line: EMSA. On the technique in general: In EMSA bound probe runs differently from free probe, usually more slowly.
In series [2] the target is T1, PABP1. Nature of the series: EMSA. This is another data set of the same source.
Series [3] has as its target human polyadenylate binding protein 1 (PABP1) (human, UniProt P11940 1-636). The experiment in a line: native gel or EMSA.

T1 sequence (P11940 whole entry): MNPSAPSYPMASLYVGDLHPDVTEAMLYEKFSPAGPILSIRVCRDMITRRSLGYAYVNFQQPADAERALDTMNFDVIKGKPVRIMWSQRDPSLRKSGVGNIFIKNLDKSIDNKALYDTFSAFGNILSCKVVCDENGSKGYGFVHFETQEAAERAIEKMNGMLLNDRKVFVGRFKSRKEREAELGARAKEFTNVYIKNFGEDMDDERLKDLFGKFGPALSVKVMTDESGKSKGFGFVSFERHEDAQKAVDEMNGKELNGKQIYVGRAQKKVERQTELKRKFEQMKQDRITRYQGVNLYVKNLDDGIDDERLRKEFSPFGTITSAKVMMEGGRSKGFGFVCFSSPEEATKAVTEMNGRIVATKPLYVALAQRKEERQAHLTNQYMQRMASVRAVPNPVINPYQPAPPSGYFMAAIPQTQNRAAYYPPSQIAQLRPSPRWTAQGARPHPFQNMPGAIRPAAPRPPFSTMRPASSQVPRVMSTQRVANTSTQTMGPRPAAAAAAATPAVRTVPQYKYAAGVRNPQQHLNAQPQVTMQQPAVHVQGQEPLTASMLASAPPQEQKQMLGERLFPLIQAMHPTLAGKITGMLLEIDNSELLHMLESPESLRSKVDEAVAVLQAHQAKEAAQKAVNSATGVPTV
Chain of human polyadenylate binding protein 1 (PABP1) (P11940 whole entry): as above

As to AAAAAAAAAAAAAAAAAA (ssRNA) [Poly(A)18], the binding result in series [1] was “binds”.

With GCUAUCCAGAUUCUGAUU (ssRNA) [ssCR1], in series [2], the binding result is recorded as “no binding”.

B1: human eIF4G1 fragment (88–653) (domain or fragment, UniProt Q04637-1 88-653, looked up)
chain: MMIPSQISYPASQGAYYIPGQGRSTYVVPTQQYPVQPGAPGFYPGASPTEFGTYAGAYYPAQGVQQFPTGVAPTPVLMNQPPQIAPKRERKTIRIRDPNQGGKDITEEIMSGARTASTPTPPQTGGGLEPQANGETPQVAVIVRPDDRSQGAIIADRPGLPGPEHSPSESQPSSPSPTPSPSPVLEPGSEPNLAVLSIPGDTMTTIQMSVEESTPISRETGEPYRLSPEPTPLAEPILEVEVTLSKPVPESEFSSSPLQAPTPLASHTVEIHEPNGMVPSEDLEPEVESSPELAPPPACPSESPVPIAPTAQPEELLNGAPSPPAVDLSPVSEPEEQAKEVTASMAPPTIPSATPATAPSATSPAQEEEMEEEEEEEEGEAGEAGEAESEKGGEELLPPESTPIPANLSQNLEAAAATQVAVSVPKRRRKIKELNKKEAVGDLLDAFKEANPAVPEVENQPPAGSNPGPESEGSGVPPRPEEADETWDSKEDKIHNAENIQPGEQKYEYKSDQWKPLNLEEKKRYDREFLLGFQFIFASMQKPEGLPHISDVVLDKANKTPLRPLDT
As for B1, the binding result in series [3] is recorded as “binds”.
